# From patent US20040072754A1, “Amyloid precursor protein and APP-deprived peptides inhibit tumor growth and metastasis” (priority 2000, published 2004)
# No end group written: not given here.
# How the values were obtained:
# [1] = tested on: hippocampal cell cultures; settings: Iversen et al., 1995; cited from earlier work
# [2] = tested on: D122 tumor cells (Lewis lung carcinoma); experiment: Lewis lung carcinoma (D122) i.v. lung metastasis model with i.p. injected Aβ peptides; format: in vivo, C57/BL mice; settings: 20 μg/mouse/injection (Aβ96-110: 10 μg), 7 times during two weeks before and 7 times after D122 i.v. injection; examined after 21 days
# Description: The intravenous (i.v.) model. […] D122 or B16 tumor cells were injected i.v. into Tg-APP, Tg-APP/SOD or parental mice and metastasis was evaluated after 30-37 days. In certain long-term experiments the evaluation was performed over a period of 120-140 days post injection of the tumor cells.
# Aβ peptides in phosphate buffered saline (PBS) were injected i.p. into C57/BL mice 4-7 times (7-10 μg each time or 10-20 μg each time in other experiments) during two weeks preceding D122 or B16 tumor cells injection and seven times every second day following D122 or B16 tumor cells injection. Control mice were i.p. injected with PBS. Mice were sacrificed 20-21 days following injection of D122 or B16 tumor cells by injecting 20 mg/mouse Xylazine (i.p.) and lungs were weighed. Lungs were fixed, stained in Bouin's solution and metastases counted. For histology, lungs were fixed in buffered formalin and histological sections were prepared and stained with Hematoxylin-Eosin. Each experimental group included 7-12 animals, and experiments were repeated twice.
# D122 tumor cells were injected i.v. to the tail of C57/BL mice. […] All together 77 μg of AP 1-42 were injected into each mouse. After 21 days tumor weight and number of metastases in the lungs were examined.
# D122 tumor cells were injected intravenously to the tail of C57/BL mice. […]
Substance,toxicity to neuronal cells [1],reduction of the number of metastases in the lungs [2]
Aβ1-28: Aβ sequence fragment tested for neurotoxicity in the literature,non-toxic,–
NWCKRGRKQCKTHPH (cysteine pairing not given here) [Aβ96-10],–,9%
Aβ1-38: Aβ sequence fragment tested for neurotoxicity in the literature,induced toxicity,–
"Aβ25-35: Aβ sequence fragment tested for neurotoxicity in the literature (GSNKGAIIGLM; Amyloid-beta protein 42; UniProt P05067 696-706, looked up, fragment)",induced toxicity,–
Aβ1-40: Aβ sequence fragment tested for neurotoxicity in the literature,induced toxicity,–
